From publication PMC10602907 (2023)
Where two headings read alike, the source gives them in different places.

Key:
Assay in all cases: MST
[1] = target: FgHapX, 6xHis-tagged recombinant protein (Fusarium graminearum PH-1)
[2] = target: T1, FgSreA, 6xHis-tagged recombinant protein (Fusarium graminearum PH-1)
[3] = target: T1, FgSreA, 6xHis-tagged recombinant protein; remark: listed apart in the source

B1: FgUbp8, 6xHis-tagged recombinant protein (natural protein)
chain: MSARPTTPASPKNVRVKSPVPGLPMFGCEHIQLLLSKNQEVMNSSITHYKLILRGIFDATPIVPQTSTLDGRPVTSLTSNYLCLQCPSTVTEEERLRHGTKKQHRFYVDSRSGCLYCQICDDYIWDPTLEELRVRKIGTGSFSGRKRKHDELFTGSFKDDPRFISSNTNTASCRANGLRGIYNAGATCYQNVVLQSFLHNPLLRNFYLSDGHQSSDCQVSHCLSCAMDDMFQDFYALETTNGYTAANILSGFWISEKKAFENLVTTKEQDAHEFFQFLAEELHERNGDGKKPEIGSEHSCNCIMHQTFYGKMQTTTTCQNCSGQSNSIQSFLDLSLGLDNVVQKKSKRTGQKKPTVSLQDCLDEEYIKYDKCEYRCNNCNGTQQAKRHTSIKRLPNVLSIQLKRFEYKHGRHDRAASKVDNEVKFPLQLNMMPYTNRIRNHDSRESLELERSCTYDLLSVVVHVGELDTGHYTSYCRVGDQWFKFNDHKVELASLSDVLGAQAYLLFYIIRSLA
Binder B1 has a Kd [1] of 1.9 µM.

B2: FgSwc6, 6xHis-tagged recombinant protein (natural protein)
chain: MNNFGVIELASAKTTSAPGWAYVPDNTISRPTAPTNRKRARNVPGLTYSDLTARQDNKIRKEVEALDKDGGKDNTIPLPVKSGRVQGKHTPNVRKILQSQKTFGNHLDDFLAMQALVESNPAISRASGANSKRPSVSRKDTPSSSKPPPDEDTTMTDANLQPLLPEPSRSPPASHPGDYNPLLVSRVPDMPSDEELRRLLAHPPLNYGEATGTRDTKYPARSFCEVCGYWGRVRCMKCGTRVCALDCLEAHKEECVTRYGP
For B2, the Kd [2] was 398 µM and the Kd [3] was 3.04 µM.
